# Data taken from IntAct's records for PubMed 32873725.
# B1: Phospholamban (Mus musculus), P61014 (parent)
# chain: MEKVQYLTRSAIRRASTIEMPQQARQNLQNLFINFCLILICLLLICIIVMLL
# Variants of: B1
# Conditions: with kcc2d_human CAMK2D
row,Variant,effect of a mutation on the interaction
1,MEKVQYLTRSAIRRAATIEMPQQARQNLQNLFINFCLILICLLLICIIVMLL [S16A],with no effect
